Experimental data taken from the supplement of paper PMC5998384.

Columns and labels:
HeLa Kyoto [1] = assay: solubility change mitosis vs G1/S (difference of NP-40 vs SDS log2 ratios) (log2 ratio difference); higher = more soluble in mitosis
HeLa Kyoto [2] = assay: solubility in G1/S (NP-40 vs SDS abundance) (log2 ratio); higher = more soluble; settings: cell cycle stage: G1/S
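Wherever solubility change mitosis vs G1/S (difference of NP-40 vs SDS log2 ratios) is given: synchronized HeLa Kyoto cells (double thymidine block for G1/S, nocodazole release for mitosis), protein amounts in NP-40 versus SDS lysates quantified by mass spectrometry, three biological replicates.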
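Wherever solubility in G1/S (NP-40 vs SDS abundance) is given: HeLa Kyoto cells arrested at G1/S by double thymidine block, proteins quantified by TMT10plex mass spectrometry in mild NP-40 versus SDS extracts, three biological replicates.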

Sequence of MAFK (chain, as listed by the source): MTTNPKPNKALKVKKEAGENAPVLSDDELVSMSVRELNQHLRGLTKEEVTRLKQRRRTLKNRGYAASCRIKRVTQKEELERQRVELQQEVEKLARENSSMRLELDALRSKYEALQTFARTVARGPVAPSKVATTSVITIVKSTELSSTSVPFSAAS
Sequence of TFAP2A (chain, as listed by the source): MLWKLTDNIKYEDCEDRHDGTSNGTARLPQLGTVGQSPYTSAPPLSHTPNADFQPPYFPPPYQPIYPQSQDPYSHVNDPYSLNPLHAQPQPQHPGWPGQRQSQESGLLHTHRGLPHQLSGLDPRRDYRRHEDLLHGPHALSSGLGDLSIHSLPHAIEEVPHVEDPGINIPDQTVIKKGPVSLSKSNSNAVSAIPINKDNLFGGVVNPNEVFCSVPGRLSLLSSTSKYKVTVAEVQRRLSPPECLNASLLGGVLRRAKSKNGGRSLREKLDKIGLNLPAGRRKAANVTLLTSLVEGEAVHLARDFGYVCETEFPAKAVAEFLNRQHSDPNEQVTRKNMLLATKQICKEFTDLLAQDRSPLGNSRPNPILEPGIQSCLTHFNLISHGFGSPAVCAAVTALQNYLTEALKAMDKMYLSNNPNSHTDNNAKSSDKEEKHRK

Substance | solubility change mitosis (log2) (HeLa Kyoto [1]) | solubility in G1/S (log2) (HeLa Kyoto [2])
MALVTVSRSPPGSGASTPVGPWDQAVQRRSRLQRRQSFAVLRGAVLGLQDGGDNDDAAEASSEPTEKAPSEEELHGDQTDFGQGSQSPQKQEEQRQHLHLMVQLLRPQDDIRLAAQLEAPRPPRLRYLLVVSTREGEGLSQDETVLLGVDFPDSSSPSCTLGLVLPLWSDTQVYLDGDGGFSVTSGGQSRIFKPISIQTMWATLQVLHQACEAALGSGLVPGGSALTWASHYQERLNSEQSCLNEWTAMADLESLRPPSAEPGGSSEQEQMEQAIRAELWKVLDVSDLESVTSKEIRQALELRLGLPLQQYRDFIDNQMLLLVAQRDRASRIFPHLYLGSEWNAANLEELQRNRVTHILNMAREIDNFYPERFTYHNVRLWDEESAQLLPHWKETHRFIEAARAQGTHVLVHCKMGVSRSAATVLAYAMKQYECSLEQALRHVQELRPIARPNPGFLRQLQIYQGILTASRQSHVWEQKVGGVSPEEHPAPEVSTPFPPLPPEPEGGGEEKVVGMEESQAAPKEEPGPRPRINLRGVMRSISLLEPSLELESTSETSDMPEVFSSHESSHEEPLQPFPQLARTKGGQQVDRGPQPALKSRQSVVTLQGSAVVANRTQAFQEQEQGQGQGQGEPCISSTPRFRKVVRQASVHDSGEEGEA [SSH3] | -0.161 | 0.212
MADWARAQSPGAVEEILDRENKRMADSLASKVTRLKSLALDIDRDAEDQNRYLDGMDSDFTSMTSLLTGSVKRFSTMARSGQDNRKLLCGMAVGLIVAFFILSYFLSRART [BET1L] | 0.0489 | -0.104
MEGRPPPEGRPPPRPRTGRAPRGRRRAVFAAVLHWSHITHLFENDRHFSHLSTLEREMAFRTEMGLYYSYFKTIVEAPSFLNGVWMIMNDKLTEYPLVINTLKRFNLYPEVILASWYRIYTKIMDLIGIQTKICWTVTRGEGLSPIESCEGLGDPACFYVAVIFILNGLMMALFFIYGTYLSGSRLGGLVTVLCFFFNHGECTRVMWTPPLRESFSYPFLVLQMLLVTHILRATKLYRGSLIALCISNVFFMLPWQFAQFVLLTQIASLFAVYVVGYIDICKLRKIIYIHMISLALCFVLMFGNSMLLTSYYASSLVIIWGILAMKPHFLKINVSELSLWVIQGCFWLFGTVILKYLTSKIFGIADDAHIGNLLTSKFFSYKDFDTLLYTCAAEFDFMEKETPLRYTKTLLLPVVLVVFVAIVRKIISDMWGVLAKQQTHVRKHQFDHGELVYHALQLLAYTALGILIMRLKLFLTPHMCVMASLICSRQLFGWLFCKVHPGAIVFAILAAMSIQGSANLQTQWNIVGEFSNLPQEELIEWIKYSTKPDAVFAGAMPTMASVKLSALRPIVNHPHYEDAGLRARTKIVYSMYSRKAAEEVKRELIKLKVNYYILEESWCVRRSKPGCSMPEIWDVEDPANAGKTPLCNLLVKDSKPHFTTVFQNSVYKVLEVVKE [DPY19L1] | 0.0231 | -0.264
TFAP2A | 0.505 | 0.185
MSSPGIDGDPKPPCLPRNGLVKLPGQPNGLGAASITKGTPATKNRPCQPPPPPTLPPPSLAAPLSRAALAGGPCTPAGGPASALAPGHPAERPPLATDEKILNGLFWYFSACEKCVLAQVCKAWRRVLYQPKFWAGLTPVLHAKELYNVLPGGEKEFVNLQGFAARGFEGFCLVGVSDLDICEFIDNYALSKKGVKAMSLKRSTITDAGLEVMLEQMQGVVRLELSGCNDFTEAGLWSSLSARITSLSVSDCINVADDAIAAISQLLPNLAELSLQAYHVTDTALAYFTARQGHSTHTLRLLSCWEITNHGVVNVVHSLPNLTALSLSGCSKVTDDGVELVAENLRKLRSLDLSWCPRITDMALEYVACDLHRLEELVLDRCVRITDTGLSYLSTMSSLRSLYLRWCCQVQDFGLKHLLALGSLRLLSLAGCPLLTTTGLSGLVQLQELEELELTNCPGATPELFKYFSQHLPRCLVIE [FBXL16] | 0.212 | 0.0543
MALLSRPALTLLLLLMAAVVRCQEQAQTTDWRATLKTIRNGVHKIDTYLNAALDLLGGEDGLCQYKCSDGSKPFPRYGYKPSPPNGCGSPLFGVHLNIGIPSLTKCCNQHDRCYETCGKSKNDCDEEFQYCLSKICRDVQKTLGLTQHVQACETTVELLFDSVIHLGCKPYLDSQRAACRCHYEEKTDL [PLA2G12A] | 0.347 | -0.604
MANETQKVGAIHFPFPFTPYSIQEDFMAELYRVLEAGKIGIFESPTGTGKSLSLICGALSWLRDFEQKKREEEARLLETGTGPLHDEKDESLCLSSSCEGAAGTPRPAGEPAWVTQFVQKKEERDLVDRLKAEQARRKQREERLQQLQHRVQLKYAAKRLRQEEEERENLLRLSREMLETGPEAERLEQLESGEEELVLAEYESDEEKKVASRVDEDEDDLEEEHITKIYYCSRTHSQLAQFVHEVKKSPFGKDVRLVSLGSRQNLCVNEDVKSLGSVQLINDRCVDMQRSRHEKKKGAEEEKPKRRRQEKQAACPFYNHEQMGLLRDEALAEVKDMEQLLALGKEARACPYYGSRLAIPAAQLVVLPYQMLLHAATRQAAGIRLQDQVVIIDEAHNLIDTITGMHSVEVSGSQLCQAHSQLLQYVERYGKRLKAKNLMYLKQILYLLEKFVAVLGGNIKQNPNTQSLSQTGTELKTINDFLFQSQIDNINLFKVQRYCEKSMISRKLFGFTERYGAVFSSREQPKLAGFQQFLQSLQPRTTEALAAPADESQASTLRPASPLMHIQGFLAALTTANQDGRVILSRQGSLSQSTLKFLLLNPAVHFAQVVKECRAVVIAGGTMQPVSDFRQQLLACAGVEAERVVEFSCGHVIPPDNILPLVICSGISNQPLEFTFQKRELPQMMDEVGRILCNLCGVVPGGVVCFFPSYEYLRQVHAHWEKGGLLGRLAARKKIFQEPKSAHQVEQVLLAYSRCIQACGQERGQVTGALLLSVVGGKMSEGINFSDNLGRCVVMVGMPFPNIRSAELQEKMAYLDQTLSPRPGTPREGSGGEPVHEGRQPVHRQGHQAPEGFCQRSAPGPAICPAPCPGQAAGLDPSPCGGQSYLWPRHCCCAEVSPGEVGLFLMGNHTTAWRRALPLSCPLETVFVVGVVCGDPVTKVKPRRRVWSPECCQDPGTGVSSRRRKWGNPE [DDX11] | -0.0575 | -0.119
MRRKGRCHRGSAARHPSSPCSVKHSPTRETLTYAQAQRMVEIEIEGRLHRISIFDPLEIILEDDLTAQEMSECNSNKENSERPPVCLRTKRHKNNRVKKKNEALPSAHGTPASASALPEPKVRIVEYSPPSAPRRPPVYYKFIEKSAEELDNEVEYDMDEEDYAWLEIVNEKRKGDCVPAVSQSMFEFLMDRFEKESHCENQKQGEQQSLIDEDAVCCICMDGECQNSNVILFCDMCNLAVHQECYGVPYIPEGQWLCRHCLQSRARPADCVLCPNKGGAFKKTDDDRWGHVVCALWIPEVGFANTVFIEPIDGVRNIPPARWKLTCYLCKQKGVGACIQCHKANCYTAFHVTCAQKAGLYMKMEPVKELTGGGTTFSVRKTAYCDVHTPPGCTRRPLNIYGDVEMKNGVCRKESSVKTVRSTSKVRKKAKKAKKALAEPCAVLPTVCAPYIPPQRLNRIANQVAIQRKKQFVERAHSYWLLKRLSRNGAPLLRRLQSSLQSQRSSQQRENDEEMKAAKEKLKYWQRLRHDLERARLLIELLRKREKLKREQVKVEQVAMELRLTPLTVLLRSVLDQLQDKDPARIFAQPVSLKEVPDYLDHIKHPMDFATMRKRLEAQGYKNLHEFEEDFDLIIDNCMKYNARDTVFYRAAVRLRDQGGVVLRQARREVDSIGLEEASGMHLPERPAAAPRRPFSWEDVDRLLDPANRAHLGLEEQLRELLDMLDLTCAMKSSGSRSKRAKLLKKEIALLRNKLSQQHSQPLPTGPGLEGFEEDGAALGPEAGEEVLPRLETLLQPRKRSRSTCGDSEVEEESPGKRLDAGLTNGFGGARSEQEPGGGLGRKATPRRRCASESSISSSNSPLCDSSFNAPKCGRGKPALVRRHTLEDRSELISCIENGNYAKAARIAAEVGQSSMWISTDAAASVLEPLKVVWAKCSGYPSYPALIIDPKMPRVPGHHNGVTIPAPPLDVLKIGEHMQTKSDEKLFLVLFFDNKRSWQWLPKSKMVPLGIDETIDKLKMMEGRNSSIRKAVRIAFDRAMNHLSRVHGEPTSDLSDID [BRD1] | 0.194 | -0.879
ALMS1 | 0.225 | 0.395
MAFK | 0.364 | 0.335
MAAAATAAEGVPSRGPPGEVIHLNVGGKRFSTSRQTLTWIPDSFFSSLLSGRISTLKDETGAIFIDRDPTVFAPILNFLRTKELDPRGVHGSSLLHEAQFYGLTPLVRRLQLREELDRSSCGNVLFNGYLPPPVFPVKRRNRHSLVGPQQLGGRPAPVRRSNTMPPNLGNAGLLGRMLDEKTPPSPSGQPEEPGMVRLVCGHHNWIAVAYTQFLVCYRLKEASGWQLVFSSPRLDWPIERLALTARVHGGALGEHDKMVAAATGSEILLWALQAEGGGSEIGVFHLGVPVEALFFVGNQLIATSHTGRIGVWNAVTKHWQVQEVQPITSYDAAGSFLLLGCNNGSIYYVDVQKFPLRMKDNDLLVSELYRDPAEDGVTALSVYLTPKTSDSGNWIEIAYGTSSGGVRVIVQHPETVGSGPQLFQTFTVHRSPVTKIMLSEKHLISVCADNNHVRTWSVTRFRGMISTQPGSTPLASFKILALESADGHGGCSAGNDIGPYGERDDQQVFIQKVVPSASQLFVRLSSTGQRVCSVRSVDGSPTTAFTVLECEGSRRLGSRPRRYLLTGQANGSLAMWDLTTAMDGLGQAPAGGLTEQELMEQLEHCELAPPAPSAPSWGCLPSPSPRISLTSLHSASSNTSLSGHRGSPSPPQAEARRRGGGSFVERCQELVRSGPDLRRPPTPAPWPSSGLGTPLTPPKMKLNETSF [SHKBP1] | -0.00881 | -0.0414
MAAAADSFSGGPAGVRLPRSPPLKVLAEQLRRDAEGGPGAWRLSRAAAGRGPLDLAAVWMQGRVVMADRGEARLRDPSGDFSVRGLERVPRGRPCLVPGKYVMVMGVVQACSPEPCLQAVKMTDLSDNPIHESMWELEVEDLHRNIP [RMI2] | 0.168 | 0.374
MAGTALKRLMAEYKQLTLNPPEGIVAGPMNEENFFEWEALIMGPEDTCFEFGVFPAILSFPLDYPLSPPKMRFTCEMFHPNIYPDGRVCISILHAPGDDPMGYESSAERWSPVQSVEKILLSVVSMLAEPNDESGANVDASKMWRDDREQFYKIAKQIVQKSLGL [UBE2G2] | 0.17 | 0.6
MVKLIHTLADHGDDVNCCAFSFSLLATCSLDKTIRLYSLRDFTELPHSPLKFHTYAVHCCCFSPSGHILASCSTDGTTVLWNTENGQMLAVMEQPSGSPVRVCQFSPDSTCLASGAADGTVVLWNAQSYKLYRCGSVKDGSLAACAFSPNGSFFVTGSSCGDLTVWDDKMRCLHSEKAHDLGITCCDFSSQPVSDGEQGLQFFRLASCGQDCQVKIWIVSFTHILGFELKYKSTLSGHCAPVLACAFSHDGQMLVSGSVDKSVIVYDTNTENILHTLTQHTRYVTTCAFAPNTLLLATGSMDKTVNIWQFDLETLCQARRTEHQLKQFTEDWSEEDVSTWLCAQDLKDLVGIFKMNNIDGKELLNLTKESLADDLKIESLGLRSKVLRKIEELRTKVKSLSSGIPDEFICPITRELMKDPVIASDGYSYEKEAMENWISKKKRTSPMTNLVLPSAVLTPNRTLKMAINRWLETHQK [WDSUB1] | -0.112 | -0.0154
